The source of these data is patent US6191113A, “Peptide for inhibiting growth of smooth muscle cells” (Juridical Foundation The Chemo-Sero-Therapeutic Research …, priority 1995, dated 2001).

One data set concerns smooth muscle cells. The experiment in a line: Cellular toxicity with Cytotox 96 kit. The note with it: Cytotox 96 kit (Promega). It is filed as cell-based, human.
Data set [1] concerns Vascular smooth muscle cells from human aorta. In words: Growth inhibition of smooth muscle cells by full-length TFPI or TFPI lacking the C-terminal region (cell count, DME). It is filed as cell-based. As to conditions: 50 μg/ml in DME, counted nine days after plating, 3 wells, Student's t-test. The procedure: Vascular smooth muscle cells from human aorta (purchased from Kurabo K.K.) were used and subjected to passage culture with Dulbecco modified Eagle medium (hereinafter referred to as "DME") supplemented with 10% fetal calf serum. The smooth muscle cells with six passages were used in the following experiment.
The smooth muscle cells suspended in DME were plated on a 48 well culture plate (manufactured by Iwaki Glass K.K.) at a cell density of 5,000 cells/well and incubated in CO2 incubator at 37° C. Two days after plating, the culture medium was exchanged with DME containing 50 μg/ml of full-length TFPI or 50 μg/ml of TFPI lacking the C-terminal region or with DME alone as a control and culture was continued in CO2 incubator at 37° C. while the culture medium was exchanged with a fresh medium on every 2 days. The culture medium was used at 0.3 ml/well. Nine days after plating, the cells attached to the plate were detached by treatment with a trypsin/EDTA solution and then a cell number per well was counted with a hemocytometer. FIG. 1 is a graph showing a mean cell number as well as a standard deviation for three wells in each group.

Consider “full-length TFPI: intact human tissue factor pathway inhibitor purified from culture supernatant of Chinese hamster ovary cell line”, for which the cellular toxicity entry in the data set on smooth muscle cells is given as “did not exhibit cellular toxicity”. For the same substance, in data set [1], the “activity to inhibit growth of smooth muscle cells (cell number per well vs control)” value is given as “significantly decreased cell number”.
